From article PMC2572732 (2008)
Non-standard residues stand in square brackets, D forms with d. No end group written: not given here. pY = N[C@@H](Cc1ccc(OP(=O)(O)O)cc1)C(=O)O

Legend:
[1] = target: isolated Fes SH2 domain, G463V (mutant G/V) (human, UniProt P07332-1 460-549, G463V (mutant G/V)); assay: FP
[2] = target: isolated Fes SH2 domain, E469K/E472K (mutant EE/KK) (human, UniProt P07332-1 460-549, E469K | E472K); assay: FP
[3] = target: isolated Fes SH2 domain, wild type (human, UniProt P07332-1 460-549); assay: FP
[4] = target: human Fes SH2-kinase unit (residues I448 to the C terminus), unphosphorylated (human, UniProt P07332-1 448-822); assay: FP; 1 mM ATP and 5 mM MgCl2

Measured: Kd

Sequence of isolated Fes SH2 domain, G463V (mutant G/V) (P07332 460-549 G463V): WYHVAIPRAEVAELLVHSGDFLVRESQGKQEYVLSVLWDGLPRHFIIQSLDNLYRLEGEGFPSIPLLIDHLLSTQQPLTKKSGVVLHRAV
Sequence of isolated Fes SH2 domain, wild type (P07332 460-549): as the sequence (P07332 460-549 G463V) above, with V4G counted along it
Sequence of isolated Fes SH2 domain, E469K/E472K (mutant EE/KK) (P07332 460-549 E469K/E472K): as the sequence (P07332 460-549 G463V) above, with V4G, E10K, E13K counted along it
Sequence of human Fes SH2-kinase unit (residues I448 to the C terminus), unphosphorylated (P07332 448-822): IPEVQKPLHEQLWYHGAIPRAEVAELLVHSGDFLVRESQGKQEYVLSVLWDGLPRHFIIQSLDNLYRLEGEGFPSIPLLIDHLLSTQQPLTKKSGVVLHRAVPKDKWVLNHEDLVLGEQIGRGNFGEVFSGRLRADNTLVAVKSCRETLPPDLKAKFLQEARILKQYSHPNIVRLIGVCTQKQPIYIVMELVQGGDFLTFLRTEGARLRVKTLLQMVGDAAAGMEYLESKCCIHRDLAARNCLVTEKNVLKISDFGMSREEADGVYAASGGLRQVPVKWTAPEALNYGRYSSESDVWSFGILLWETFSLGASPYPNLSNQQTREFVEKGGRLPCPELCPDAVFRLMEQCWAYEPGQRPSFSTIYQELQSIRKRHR

V[pY]EPVSY [pTyr-containing peptide from ezrin (VpYEPVSY)]
~400 nM: [1] | [2] | [3] | [4]
